For 13 molecules, interaction score results are on record in PMC10397247.

Common to all, as to test: two-hybrid library CCmax;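 note: natural log of median RNA to DNA barcode read ratio; higher means stronger binding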
For one assay, the target named is T1, P6-AA-1HAA-S.
T1 chain: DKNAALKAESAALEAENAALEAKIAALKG
As to conditions: mean of both orientations.

The target in a further assay is T2, P6-AA-1HAA-R.
T2 chain: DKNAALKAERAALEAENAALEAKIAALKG
To be noted: mean of both orientations.

In another assay the target is T3, P6-AA-1HAA-E.
T3 chain: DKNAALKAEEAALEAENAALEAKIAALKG
As to conditions: mean of both orientations.

The target in the next assay is T4, P6-AA-1HAA-K.
T4 chain: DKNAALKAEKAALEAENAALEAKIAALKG

The target of another assay is T5, P6-AA-1HAA-L.
T5 chain: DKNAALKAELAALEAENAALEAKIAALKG
To be noted: mean of both orientations.

The next assay deals with T6, P6-AA-1HAA-D.
T6 chain: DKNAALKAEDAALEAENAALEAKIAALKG
To be noted: mean of both orientations.

A further assay addresses T7, P6-AA-1HAA-V.
T7 chain: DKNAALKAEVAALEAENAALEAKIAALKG

Another assay has as its target T8, P6-AA-1HAA-H.
T8 chain: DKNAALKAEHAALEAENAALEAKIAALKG

The next assay concerns the target T9, P6-AA-1HAA-Y.
T9 chain: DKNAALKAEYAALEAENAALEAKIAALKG

Another assay has as its target T10, P6-AA-1HAA-T.
T10 chain: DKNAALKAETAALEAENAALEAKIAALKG
To be noted: mean of both orientations.

The next assay concerns the target T11, P6-AA-1HAA-N.
T11 chain: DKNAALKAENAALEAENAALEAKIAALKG
To be noted: mean of both orientations.

The next assay addresses T12, P6-AA-12HAA-L.
T12 chain: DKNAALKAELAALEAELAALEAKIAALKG
As to conditions: mean of both orientations.

A further assay concerns the target T13, P6-AA-12HAA-V.
T13 chain: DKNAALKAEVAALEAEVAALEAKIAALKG
To be noted: mean of both orientations.

The next assay has as its target T14, P6-AA-12HAA-R.
T14 chain: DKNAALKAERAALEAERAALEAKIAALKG
As to conditions: mean of both orientations.

The target in another assay is T15, P6-AA-12HAA-S.
T15 chain: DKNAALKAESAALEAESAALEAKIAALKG

The target of a further assay is T16, P6-AA-12HAA-H.
T16 chain: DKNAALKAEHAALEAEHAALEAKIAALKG
As to conditions: mean of both orientations.

The target of the next assay is T17, P6-AA-12HAA-Y.
T17 chain: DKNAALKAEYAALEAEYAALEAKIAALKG

The target in the next assay is T18, P6-AA-12HAA-T.
T18 chain: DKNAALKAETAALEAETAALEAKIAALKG

The target in the next assay is T19, P6-AA-12HAA-D.
T19 chain: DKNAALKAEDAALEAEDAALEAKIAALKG
To be noted: mean of both orientations.

Another assay concerns the target T20, P6-AA-12HAA-E.
T20 chain: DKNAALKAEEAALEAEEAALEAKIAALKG
As to conditions: mean of both orientations.

A further assay has as its target T21, P6-AA-12HAA-K.
T21 chain: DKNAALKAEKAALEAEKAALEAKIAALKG

Where two headings read alike, the source gives them in different places.

B1: P5-AA-1HAA-Y (peptide)
chain: DENAALEAKYAALKAKNAALKAEIAALEG
As to B1, the interaction score is 1.55 with P6-AA-1HAA-S; -0.286 in the assay with P6-AA-1HAA-R; -0.129 with P6-AA-1HAA-E; 0.174 with P6-AA-1HAA-K (mean of both orientations); 1.72 in the assay with P6-AA-1HAA-L; -0.899 with P6-AA-1HAA-D. Besides, the interaction score was 1.79 with P6-AA-1HAA-V (mean of both orientations); -0.1 with P6-AA-1HAA-H (mean of both orientations); 1.34 with P6-AA-1HAA-Y (mean of both orientations); 1.28 with P6-AA-1HAA-T; 1.76 with P6-AA-1HAA-N.

B2: P5-AA-12HAA-H (peptide)
chain: DENAALEAKHAALKAKHAALKAEIAALEG
With B2, the interaction score in the assay with P6-AA-12HAA-L is 1.16; in the assay with P6-AA-12HAA-V it was 1.55; in the assay with P6-AA-12HAA-R it was -1.68; in the assay with P6-AA-12HAA-S, -1.37; with P6-AA-12HAA-H, -1.49; with P6-AA-12HAA-Y (mean of both orientations), -0.856. In addition, the interaction score with P6-AA-12HAA-T (mean of both orientations) was -0.831; with P6-AA-12HAA-D, -1.53; in the assay with P6-AA-12HAA-E, -1.49; in the assay with P6-AA-12HAA-K (mean of both orientations) it was -1.6; in the assay with P6-AA-1HAA-N it was 0.14.

B3: P5-AA-12HAA-D (peptide)
chain: DENAALEAKDAALKAKDAALKAEIAALEG
Consider B3, for which the interaction score in the assay with P6-AA-12HAA-L was -1.56; with P6-AA-12HAA-V, -1.32; with P6-AA-12HAA-R, -1.55; with P6-AA-12HAA-S (mean of both orientations), -1.67; with P6-AA-12HAA-H it was -1.57; with P6-AA-12HAA-Y, -1.95. The interaction score in the assay with P6-AA-12HAA-T (mean of both orientations) was -1.41; with P6-AA-12HAA-D it was -1.47; with P6-AA-12HAA-E it was -1.97; with P6-AA-12HAA-K (mean of both orientations), -1.61; in the assay with P6-AA-1HAA-N it was -1.68.

B4: P5-AA-1HAA-A (peptide)
chain: DENAALEAKAAALKAKNAALKAEIAALEG
Consider B4, for which the interaction score is -0.02 with P6-AA-1HAA-S; -0.629 with P6-AA-1HAA-R; -0.184 in the assay with P6-AA-1HAA-E; -0.453 in the assay with P6-AA-1HAA-K (mean of both orientations); 1.94 with P6-AA-1HAA-L; -1.94 with P6-AA-1HAA-D. The interaction score with P6-AA-1HAA-V was 2.66; with P6-AA-1HAA-H (mean of both orientations) it was -0.274; with P6-AA-1HAA-Y (mean of both orientations) it was 0.845; in the assay with P6-AA-1HAA-T, 0.325; in the assay with P6-AA-1HAA-N, 0.981.

B5: P5-AA-12HAA-Y (peptide)
chain: DENAALEAKYAALKAKYAALKAEIAALEG
Turning to B5, the interaction score with P6-AA-12HAA-L was 2.06; with P6-AA-12HAA-V it was 2.38; in the assay with P6-AA-12HAA-R, -1.41; in the assay with P6-AA-12HAA-S (mean of both orientations) it was -1.4; with P6-AA-12HAA-H it was -1.67; in the assay with P6-AA-12HAA-Y (mean of both orientations), 1.48. The interaction score with P6-AA-12HAA-T is -0.448; in the assay with P6-AA-12HAA-D, -1.3; with P6-AA-12HAA-E it was -1.65; with P6-AA-12HAA-K (mean of both orientations), -1.55; with P6-AA-1HAA-N, -0.0879.

B6: P5-AA-1HAA-D (peptide)
chain: DENAALEAKDAALKAKNAALKAEIAALEG
Consider B6, for which the interaction score with P6-AA-1HAA-S is -1.34; in the assay with P6-AA-1HAA-R it was -1.35; with P6-AA-1HAA-E, -1.72; with P6-AA-1HAA-K (mean of both orientations), -1.15; with P6-AA-1HAA-L, -0.571; in the assay with P6-AA-1HAA-D it was -1.42. Besides, the interaction score in the assay with P6-AA-1HAA-V (mean of both orientations) is 0.68; with P6-AA-1HAA-H (mean of both orientations), -0.764; with P6-AA-1HAA-Y, -0.724; with P6-AA-1HAA-T it was -1.02; with P6-AA-1HAA-N, -1.12.

B7: P5-AA-1HAA-K (peptide)
chain: DENAALEAKKAALKAKNAALKAEIAALEG
On to B7, for which the interaction score was 0.0853 in the assay with P6-AA-1HAA-S; -1.3 with P6-AA-1HAA-R; -0.501 in the assay with P6-AA-1HAA-E; -0.653 in the assay with P6-AA-1HAA-K (mean of both orientations); 1.84 with P6-AA-1HAA-L; -0.814 with P6-AA-1HAA-D. Besides, the interaction score was 2.05 with P6-AA-1HAA-V (mean of both orientations); -0.889 with P6-AA-1HAA-H (mean of both orientations); 0.0221 with P6-AA-1HAA-Y (mean of both orientations); 1.53 in the assay with P6-AA-1HAA-T; 1.41 with P6-AA-1HAA-N.

B8: P5-AA-12HAA-A (peptide)
chain: DENAALEAKAAALKAKAAALKAEIAALEG
On to B8, for which the interaction score in the assay with P6-AA-12HAA-L was 1.96; in the assay with P6-AA-12HAA-V it was 1.95; with P6-AA-12HAA-R it was -2.54; in the assay with P6-AA-12HAA-S (mean of both orientations), -1.71; with P6-AA-12HAA-H it was -1.86; with P6-AA-12HAA-Y (mean of both orientations), -0.289. Also, the interaction score with P6-AA-12HAA-T (mean of both orientations) is -0.646; with P6-AA-12HAA-D, -1.63; with P6-AA-12HAA-E, -1.81; with P6-AA-12HAA-K, -1.98; in the assay with P6-AA-1HAA-N, -1.39.

B9: P5-AA-1HAA-L (peptide)
chain: DENAALEAKLAALKAKNAALKAEIAALEG
Turning to B9, the interaction score with P6-AA-1HAA-S is 1.85; in the assay with P6-AA-1HAA-R, 1.43; in the assay with P6-AA-1HAA-E it was 1.45; with P6-AA-1HAA-K (mean of both orientations) it was 1.78; in the assay with P6-AA-1HAA-L, 2.49; in the assay with P6-AA-1HAA-D, -0.436. The interaction score with P6-AA-1HAA-V (mean of both orientations) is 2.31; with P6-AA-1HAA-H (mean of both orientations), 1.55; with P6-AA-1HAA-Y (mean of both orientations), 1.93; with P6-AA-1HAA-T it was 2.08; with P6-AA-1HAA-N, 1.66.

B10: P5-AA-1HAA-V (peptide)
chain: DENAALEAKVAALKAKNAALKAEIAALEG
Regarding B10, the interaction score was 1.53 with P6-AA-1HAA-S; 1.76 in the assay with P6-AA-1HAA-R; 2.25 with P6-AA-1HAA-E; 2.25 with P6-AA-1HAA-K (mean of both orientations); 2.32 with P6-AA-1HAA-L; 0.818 with P6-AA-1HAA-D. Further, the interaction score in the assay with P6-AA-1HAA-V (mean of both orientations) is 2.09; with P6-AA-1HAA-H (mean of both orientations), 1.79; in the assay with P6-AA-1HAA-Y (mean of both orientations), 2.48; in the assay with P6-AA-1HAA-T, 1.93; with P6-AA-1HAA-N, 1.42.

B11: P5-AA-1HAA-S (peptide)
chain: DENAALEAKSAALKAKNAALKAEIAALEG
As to B11, the interaction score with P6-AA-1HAA-S is -0.742; with P6-AA-1HAA-R, -0.821; with P6-AA-1HAA-E it was -0.781; with P6-AA-1HAA-K it was -1.01; with P6-AA-1HAA-L it was 1.67; with P6-AA-1HAA-D, -1.74. Also, the interaction score amounted to 2.16 in the assay with P6-AA-1HAA-V (mean of both orientations); 0.0581 with P6-AA-1HAA-H (mean of both orientations); 0.832 in the assay with P6-AA-1HAA-Y (mean of both orientations); 0.235 with P6-AA-1HAA-T; 0.913 with P6-AA-1HAA-N.

B12: P5-AA-1HAA-H (peptide)
chain: DENAALEAKHAALKAKNAALKAEIAALEG
For the molecule B12, the interaction score with P6-AA-1HAA-S is 0.88; with P6-AA-1HAA-R it was -1.13; with P6-AA-1HAA-E, -0.637; with P6-AA-1HAA-K (mean of both orientations) it was -0.495; with P6-AA-1HAA-L, 1.9; in the assay with P6-AA-1HAA-D it was -0.238. Further, the interaction score with P6-AA-1HAA-V (mean of both orientations) was 2.15; with P6-AA-1HAA-H (mean of both orientations) it was -0.596; in the assay with P6-AA-1HAA-Y (mean of both orientations), 0.439; with P6-AA-1HAA-T, 1.49; in the assay with P6-AA-1HAA-N, 1.97.

B13: P5-AA-1HAA-R (peptide)
chain: DENAALEAKRAALKAKNAALKAEIAALEG
Consider B13, for which the interaction score is 0.434 with P6-AA-1HAA-S; -1.22 with P6-AA-1HAA-R; -0.332 with P6-AA-1HAA-E; -0.713 with P6-AA-1HAA-K (mean of both orientations); 2.18 with P6-AA-1HAA-L; -0.756 with P6-AA-1HAA-D. In addition, the interaction score with P6-AA-1HAA-V (mean of both orientations) is 2.18; in the assay with P6-AA-1HAA-H it was -0.333; with P6-AA-1HAA-Y (mean of both orientations), 0.0514; in the assay with P6-AA-1HAA-T, 1.54; with P6-AA-1HAA-N, 1.85.
